Test results reported in EP4796565A1, “SYNTHESIZED ANTI-CANCER LIPOPEPTIDE AND USE THEREOF” (Yongzhou Zhonggu Biotechnology Co., Ltd., priority 2023, dated 2025).

Tests used:
recombinant CK2α = experiment: cell-based or functional assay
[1] = biological target: Arginyl-tRNA-protein transferase 1 (Homo sapiens, UniProt O95260)
[2] = biological target: Calponin-3 (Homo sapiens) (UniProt Q15417)
[3] = biological target: Cleavage stimulation subunit 3 (Homo sapiens) (UniProt Q12996)
[4] = biological target: Collagen alpha-1(V) chain (Homo sapiens, UniProt P20908)
Sequence of Collagen alpha-1(V) chain (P20908 38-1605 limits assumed): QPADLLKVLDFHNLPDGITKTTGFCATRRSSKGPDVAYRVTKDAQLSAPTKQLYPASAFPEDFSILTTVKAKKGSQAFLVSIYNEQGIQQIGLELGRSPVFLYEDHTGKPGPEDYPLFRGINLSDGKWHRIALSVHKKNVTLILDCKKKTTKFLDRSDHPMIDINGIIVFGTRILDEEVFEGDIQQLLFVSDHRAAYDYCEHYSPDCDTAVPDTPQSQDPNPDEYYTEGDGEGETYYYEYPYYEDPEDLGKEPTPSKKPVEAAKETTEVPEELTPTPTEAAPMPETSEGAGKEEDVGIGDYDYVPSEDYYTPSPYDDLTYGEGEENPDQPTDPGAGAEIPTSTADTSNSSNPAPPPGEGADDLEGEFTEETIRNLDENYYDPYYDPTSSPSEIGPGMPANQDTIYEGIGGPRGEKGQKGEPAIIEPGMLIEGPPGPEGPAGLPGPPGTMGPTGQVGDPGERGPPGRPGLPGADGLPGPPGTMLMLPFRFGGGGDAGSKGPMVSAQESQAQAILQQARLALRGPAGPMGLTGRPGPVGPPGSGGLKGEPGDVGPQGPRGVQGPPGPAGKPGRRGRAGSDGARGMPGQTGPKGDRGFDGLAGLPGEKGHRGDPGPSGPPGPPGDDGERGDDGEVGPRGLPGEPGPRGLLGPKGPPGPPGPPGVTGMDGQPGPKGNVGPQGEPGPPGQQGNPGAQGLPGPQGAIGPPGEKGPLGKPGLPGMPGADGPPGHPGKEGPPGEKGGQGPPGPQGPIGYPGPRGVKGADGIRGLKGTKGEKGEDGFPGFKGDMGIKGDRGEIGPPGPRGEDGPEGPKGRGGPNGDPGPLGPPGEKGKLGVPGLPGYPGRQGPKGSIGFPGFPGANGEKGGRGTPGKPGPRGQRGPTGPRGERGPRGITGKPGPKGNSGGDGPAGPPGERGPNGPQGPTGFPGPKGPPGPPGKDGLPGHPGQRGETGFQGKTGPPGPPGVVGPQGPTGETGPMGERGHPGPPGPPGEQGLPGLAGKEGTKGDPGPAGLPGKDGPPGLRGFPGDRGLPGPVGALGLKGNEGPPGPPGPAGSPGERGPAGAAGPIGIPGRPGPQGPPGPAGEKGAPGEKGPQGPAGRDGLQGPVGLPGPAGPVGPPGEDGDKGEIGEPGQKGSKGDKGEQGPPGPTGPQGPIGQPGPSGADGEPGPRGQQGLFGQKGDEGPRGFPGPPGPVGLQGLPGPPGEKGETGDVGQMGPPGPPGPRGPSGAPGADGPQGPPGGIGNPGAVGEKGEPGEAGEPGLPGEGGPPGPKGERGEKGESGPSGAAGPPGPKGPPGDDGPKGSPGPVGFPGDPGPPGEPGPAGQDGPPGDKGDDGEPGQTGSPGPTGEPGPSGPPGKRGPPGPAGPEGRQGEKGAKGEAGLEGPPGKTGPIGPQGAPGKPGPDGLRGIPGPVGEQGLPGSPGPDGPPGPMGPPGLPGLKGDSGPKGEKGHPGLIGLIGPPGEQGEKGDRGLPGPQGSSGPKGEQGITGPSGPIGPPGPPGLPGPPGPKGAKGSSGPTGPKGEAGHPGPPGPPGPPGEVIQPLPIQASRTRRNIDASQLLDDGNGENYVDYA

Cullin-1 = Cullin-1 (Homo sapiens, UniProt Q13616)
Sequence of Cullin-1 (Q13616 whole entry): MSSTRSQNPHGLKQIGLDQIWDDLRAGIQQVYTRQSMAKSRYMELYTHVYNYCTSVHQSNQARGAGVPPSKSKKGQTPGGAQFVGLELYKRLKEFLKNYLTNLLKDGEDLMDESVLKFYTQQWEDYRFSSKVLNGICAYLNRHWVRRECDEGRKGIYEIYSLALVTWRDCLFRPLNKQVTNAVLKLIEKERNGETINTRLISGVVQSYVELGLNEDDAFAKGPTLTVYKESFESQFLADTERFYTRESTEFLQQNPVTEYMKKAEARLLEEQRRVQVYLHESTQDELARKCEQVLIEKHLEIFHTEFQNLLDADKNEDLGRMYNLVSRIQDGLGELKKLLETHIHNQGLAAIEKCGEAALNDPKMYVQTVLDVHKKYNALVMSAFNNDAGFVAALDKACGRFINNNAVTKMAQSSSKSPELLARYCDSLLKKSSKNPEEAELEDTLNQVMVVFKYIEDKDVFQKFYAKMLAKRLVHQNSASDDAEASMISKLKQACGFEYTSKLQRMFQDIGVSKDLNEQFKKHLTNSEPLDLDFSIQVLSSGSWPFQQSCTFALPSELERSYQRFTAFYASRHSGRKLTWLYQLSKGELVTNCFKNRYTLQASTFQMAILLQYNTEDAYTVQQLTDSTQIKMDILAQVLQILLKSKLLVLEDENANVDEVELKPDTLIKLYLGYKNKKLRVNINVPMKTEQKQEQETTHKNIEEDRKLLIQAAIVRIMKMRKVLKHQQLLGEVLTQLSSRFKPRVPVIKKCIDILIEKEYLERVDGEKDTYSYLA

[5] = biological target: Gem-associated protein 2 (Homo sapiens) (UniProt O14893)
Sequence of Gem-associated protein 2 (Homo sapiens) (O14893 whole entry): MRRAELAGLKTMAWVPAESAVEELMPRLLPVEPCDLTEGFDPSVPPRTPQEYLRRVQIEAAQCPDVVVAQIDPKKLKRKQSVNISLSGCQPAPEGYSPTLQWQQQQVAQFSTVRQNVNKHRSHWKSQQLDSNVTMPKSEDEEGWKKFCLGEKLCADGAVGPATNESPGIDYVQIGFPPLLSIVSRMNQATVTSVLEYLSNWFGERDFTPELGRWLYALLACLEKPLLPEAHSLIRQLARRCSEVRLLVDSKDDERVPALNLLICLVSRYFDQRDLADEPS

[6] = biological target: High mobility group protein HMGI-C (Homo sapiens) (UniProt P52926)
Sequence of High mobility group protein HMGI-C (Homo sapiens) (P52926 2-109 limits assumed): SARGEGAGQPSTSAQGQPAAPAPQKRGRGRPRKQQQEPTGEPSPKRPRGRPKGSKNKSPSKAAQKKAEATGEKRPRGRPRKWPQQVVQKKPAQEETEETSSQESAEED

Histone H2A type 2-B = Histone H2A type 2-B (Homo sapiens, UniProt Q8IUE6)
[7] = biological target: Replication protein A 32 kDa subunit (Homo sapiens, UniProt P15927)
Sequence of Replication protein A 32 kDa subunit (P15927 whole entry): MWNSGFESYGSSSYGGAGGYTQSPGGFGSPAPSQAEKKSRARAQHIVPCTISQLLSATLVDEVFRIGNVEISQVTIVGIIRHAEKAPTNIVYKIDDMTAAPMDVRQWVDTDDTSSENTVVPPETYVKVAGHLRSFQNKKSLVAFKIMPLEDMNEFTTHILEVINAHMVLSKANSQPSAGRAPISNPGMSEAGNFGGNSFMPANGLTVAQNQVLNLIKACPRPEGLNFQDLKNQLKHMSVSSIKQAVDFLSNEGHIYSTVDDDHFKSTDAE

[8] = biological target: Serine/arginine-rich splicing factor 8 (Homo sapiens) (UniProt Q9BRL6)
Surfeit locus protein 2 = Surfeit locus protein 2 (Homo sapiens, UniProt Q15527)
Sequence of Surfeit locus protein 2 (Q15527 whole entry): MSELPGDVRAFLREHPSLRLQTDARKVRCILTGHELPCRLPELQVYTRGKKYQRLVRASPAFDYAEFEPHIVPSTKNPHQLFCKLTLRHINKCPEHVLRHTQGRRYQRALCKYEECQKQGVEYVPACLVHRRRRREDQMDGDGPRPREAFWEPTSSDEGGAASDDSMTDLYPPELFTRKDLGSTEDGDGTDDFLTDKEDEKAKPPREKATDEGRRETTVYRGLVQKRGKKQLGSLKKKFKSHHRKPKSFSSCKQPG

[9] = biological target: U6 snRNA-associated Sm-like protein LSm8 (Homo sapiens) (UniProt O95777)
Sequence of U6 snRNA-associated Sm-like protein LSm8 (Homo sapiens) (O95777 2-96 limits assumed): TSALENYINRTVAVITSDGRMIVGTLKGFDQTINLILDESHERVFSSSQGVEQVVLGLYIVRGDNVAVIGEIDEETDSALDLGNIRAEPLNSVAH

Xaa-Pro aminopeptidase 1 = Xaa-Pro aminopeptidase 1 (Homo sapiens, UniProt Q9NQW7)
A549 cells = experiment: ROS levels (DHE reagent) and cell viability by flow cytometry; type: cell-based, human; conditions: for DHE reagent (Geometric mean) Mean: ROS level
Description: In addition to inducing higher levels of apoptosis compared to the CIGB-300 peptide, the lipopeptide also triggered greater reactive oxygen species (ROS) production in A549 cells after 2 hours of incubation with the antioxidant N-acetyl-L-cysteine (NAC), as analyzed by flow cytometry (Table 2). The elevated ROS levels were correlated with the stronger inhibitory effect of the lipopeptide on cell viability. Table 2: ROS levels induced by the lipopeptide and the CIGB-300 peptide in A549 cells

A431 = experiment: Tumor cell viability, Alamar Blue; type: cell-based, human; conditions: A431, Malignant, Vulvar epidermoid carcinoma; 48 hours of incubation
Description: (§1) All human tumor cells used in the present application were obtained from the American Type Culture Collection (ATCC, Manassas, VA, USA) and cultured in RPMI 1640 medium (Gibco) supplemented with 10% (v/v) fetal bovine serum and gentamicin (50 µg/ml) at 37 °C in a 5% CO2 atmosphere. The effects of the lipopeptide and the CIGB-300 peptide on tumor cell viability were assessed using Alamar Blue reagent (Life Technologies, Carlsbad, CA, USA). Cells were seeded in flatbottom 96-well plates (2×10^5 cells/mL, 200 µL/well) and incubated for 24 hours, followed by treatment with the lipopeptide and the CIGB-300 peptide serially diluted from 100 to 3.12 µM at a 1:2 ratio. After 48 hours of incubation, 10% (v/v) Alamar Blue was added, and the cell suspension was incubated for an additional 4 hours. Fluorescence intensity in the microplates was measured, and IC50 values were calculated using CalcuSyn software (version 2.1) (Biosoft, Cambridge, UK).

A549 = experiment: Tumor cell viability, Alamar Blue; type: cell-based, human; conditions: A549, Malignant, NSCLC; 48 hours of incubation
Description: as §1

Hep-2 = experiment: Tumor cell viability, Alamar Blue; type: cell-based, human; conditions: Hep-2, Malignant, Laryngeal squamous cell carcinoma; 48 hours of incubation
Description: as §1

HepG2 = experiment: Tumor cell viability, Alamar Blue; type: cell-based, human; conditions: HepG2, Malignant, Hepatocellular carcinoma; 48 hours of incubation
Description: as §1

NCI-H125 = experiment: Tumor cell viability, Alamar Blue; type: cell-based, human; conditions: NCI-H125, Malignant, NSCLC; 48 hours of incubation
Description: as §1

NCI-H226 = experiment: Tumor cell viability, Alamar Blue; type: cell-based, human; conditions: NCI-H226, Malignant, NSCLC; 48 hours of incubation
Description: as §1

NCI-H460 = experiment: Tumor cell viability, Alamar Blue; type: cell-based, human; conditions: NCI-H460, Malignant, NSCLC; 48 hours of incubation
Description: as §1

NCI-H522 = experiment: Tumor cell viability, Alamar Blue; type: cell-based, human; conditions: NCI-H522, Malignant, NSCLC; 48 hours of incubation
Description: as §1

NCI-H82 = experiment: Tumor cell viability, Alamar Blue; type: cell-based, human; conditions: NCI-H82, Malignant, SCLC; 48 hours of incubation
Description: as §1

PC3 = experiment: Tumor cell viability, Alamar Blue; type: cell-based, human; conditions: PC3, Malignant, Prostate cancer; 48 hours of incubation
Description: as §1

SK-MES1 = experiment: Tumor cell viability, Alamar Blue; type: cell-based, human; conditions: SK-MES1, Malignant, NSCLC; 48 hours of incubation
Description: as §1

SW948 = experiment: Tumor cell viability, Alamar Blue; type: cell-based, human; conditions: SW948, Malignant, Colon adenocarcinoma; 48 hours of incubation
Description: as §1

U87 = experiment: Tumor cell viability, Alamar Blue; type: cell-based, human; conditions: U87, Malignant, Glioblastoma; 48 hours of incubation
Description: as §1

MRC-5 = experiment: Cell viability, Alamar Blue (benign cells); type: cell-based; conditions: MRC-5, Benign, Lung fibroblasts; 48 hours of incubation
RR-805 = experiment: Cell viability, Alamar Blue (benign cells); type: cell-based; conditions: RR-805, Benign, Renal primary fibroblasts; 48 hours of incubation
[10] = With NAC, 2 hours of incubation

Sequence of Calponin-3 (Homo sapiens) (Q15417 whole entry): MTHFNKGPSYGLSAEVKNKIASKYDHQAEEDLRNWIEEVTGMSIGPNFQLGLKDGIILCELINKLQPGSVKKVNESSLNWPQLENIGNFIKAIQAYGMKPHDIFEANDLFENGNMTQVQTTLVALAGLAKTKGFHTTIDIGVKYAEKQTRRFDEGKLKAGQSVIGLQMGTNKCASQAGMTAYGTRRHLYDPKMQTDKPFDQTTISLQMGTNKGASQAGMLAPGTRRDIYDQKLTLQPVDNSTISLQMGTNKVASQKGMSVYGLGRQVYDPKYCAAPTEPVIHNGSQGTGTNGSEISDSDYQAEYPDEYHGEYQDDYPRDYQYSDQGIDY
Sequence of Cleavage stimulation subunit 3 (Homo sapiens) (Q12996 2-717 limits assumed): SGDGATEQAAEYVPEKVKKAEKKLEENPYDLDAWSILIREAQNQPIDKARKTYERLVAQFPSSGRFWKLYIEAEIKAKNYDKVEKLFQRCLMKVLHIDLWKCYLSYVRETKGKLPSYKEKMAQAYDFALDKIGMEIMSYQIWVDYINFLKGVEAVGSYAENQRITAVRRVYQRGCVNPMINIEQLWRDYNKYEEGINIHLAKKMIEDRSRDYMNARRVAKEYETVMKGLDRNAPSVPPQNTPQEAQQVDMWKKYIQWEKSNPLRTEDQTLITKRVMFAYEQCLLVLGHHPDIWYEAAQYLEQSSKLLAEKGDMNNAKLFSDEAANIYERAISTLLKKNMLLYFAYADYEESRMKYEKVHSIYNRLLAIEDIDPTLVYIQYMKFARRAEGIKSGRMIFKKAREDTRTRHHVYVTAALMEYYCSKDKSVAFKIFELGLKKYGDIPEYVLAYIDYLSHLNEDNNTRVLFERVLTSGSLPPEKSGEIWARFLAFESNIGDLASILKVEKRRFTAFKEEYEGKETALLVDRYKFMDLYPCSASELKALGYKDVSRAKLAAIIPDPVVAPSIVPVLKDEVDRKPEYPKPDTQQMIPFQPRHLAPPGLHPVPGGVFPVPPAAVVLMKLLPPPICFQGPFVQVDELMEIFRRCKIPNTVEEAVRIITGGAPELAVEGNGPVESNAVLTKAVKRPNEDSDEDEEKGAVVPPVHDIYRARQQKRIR
Sequence of Arginyl-tRNA-protein transferase 1 (O95260 whole entry): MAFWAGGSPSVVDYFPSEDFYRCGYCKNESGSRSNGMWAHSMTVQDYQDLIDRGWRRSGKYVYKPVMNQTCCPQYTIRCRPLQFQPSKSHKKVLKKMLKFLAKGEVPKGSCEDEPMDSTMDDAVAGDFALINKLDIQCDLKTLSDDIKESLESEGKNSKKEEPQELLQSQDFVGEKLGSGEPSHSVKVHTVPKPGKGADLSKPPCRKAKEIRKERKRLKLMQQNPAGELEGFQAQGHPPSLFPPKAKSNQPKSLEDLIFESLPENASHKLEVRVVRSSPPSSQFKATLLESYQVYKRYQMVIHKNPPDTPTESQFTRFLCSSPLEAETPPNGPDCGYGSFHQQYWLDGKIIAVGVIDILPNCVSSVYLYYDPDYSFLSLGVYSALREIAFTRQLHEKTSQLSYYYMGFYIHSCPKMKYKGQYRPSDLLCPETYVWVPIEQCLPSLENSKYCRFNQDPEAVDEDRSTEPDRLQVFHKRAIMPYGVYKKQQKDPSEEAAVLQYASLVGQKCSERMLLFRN

Work on CIGB-300 peptide yielded a CK2 enzyme activity (CPM x10^3) at 0.00 µM peptide (baseline without peptide) (recombinant CK2α) of 170000 CPM, a CK2 enzyme activity (CPM x10^3) at 0.097 µM peptide (recombinant CK2α) of 171000 CPM and a CK2 enzyme activity (CPM x10^3) at 0.195 µM peptide (recombinant CK2α) of 169000 CPM. For the same compound, the CK2 enzyme activity (CPM x10^3) at 0.39 µM peptide (recombinant CK2α) was 162000 CPM, the CK2 enzyme activity (CPM x10^3) at 0.781 µM peptide (recombinant CK2α) was 158000 CPM and the CK2 enzyme activity (CPM x10^3) at 1.56 µM peptide (recombinant CK2α) was 109000 CPM. For the same compound, the CK2 enzyme activity (CPM x10^3) at 3.125 µM peptide (recombinant CK2α) was 92000 CPM, the CK2 enzyme activity (CPM x10^3) at 6.25 µM peptide (recombinant CK2α) was 61000 CPM and the CK2 enzyme activity (CPM x10^3) at 12.5 µM peptide (recombinant CK2α) was 31000 CPM. It also gave a CK2 enzyme activity (CPM x10^3) at 25 µM peptide (recombinant CK2α) of 19000 CPM and a CK2 enzyme activity (CPM x10^3) at 50 µM peptide (recombinant CK2α) of 4000 CPM.

For “synthetic anti-cancer lipopeptide (decanoyl-CIGB-300)”, the Abundance ratio of lipopeptide/CIGB-300 [1] was 2.01, the Abundance ratio of lipopeptide/CIGB-300 [2] was 2.37 and the Abundance ratio of lipopeptide/CIGB-300 [3] was 5.12. It also gave an Abundance ratio of lipopeptide/CIGB-300 [4] of 2.97, an Abundance ratio of lipopeptide/CIGB-300 (Cullin-1) of 2.3 and an Abundance ratio of lipopeptide/CIGB-300 [5] of 2.62. It also gave an Abundance ratio of lipopeptide/CIGB-300 [6] of 3.88, an Abundance ratio of lipopeptide/CIGB-300 (Histone H2A type 2-B) of 2.19 and an Abundance ratio of lipopeptide/CIGB-300 [7] of 2.1. It also gave an Abundance ratio of lipopeptide/CIGB-300 [8] of 2.86, an Abundance ratio of lipopeptide/CIGB-300 (Surfeit locus protein 2) of 2.05 and an Abundance ratio of lipopeptide/CIGB-300 [9] of 3.31. The Abundance ratio of lipopeptide/CIGB-300 (Xaa-Pro aminopeptidase 1) was 2.26.

`OO` [H2O2] was tested, and the “Cell viability (%) Mean” value (A549 cells; [10]) was 94.9%, the “DHE reagent (Geometric mean) Mean” value (A549 cells; [10]) was 4175 and the “Cell viability (%) Mean” value (A549 cells; Without NAC) was 94.0%. For the same compound, the “DHE reagent (Geometric mean) Mean” value (A549 cells; Without NAC) was 4335.

Compound `CSCC[C@@H]1NC(=O)[C@H](Cc2c[nH]c3ccccc23)NC(=O)[C@@H](NC(=O)CCNC(=O)[C@H](CCC(N)=O)NC(=O)[C@@H]2CCCN2C(=O)[C@@H]2CCCN2C(=O)[C@H](CCCNC(=N)N)NC(=O)[C@H](CCCNC(=N)N)NC(=O)[C@H](CCCNC(=N)N)NC(=O)[C@H](CCC(N)=O)NC(=O)[C@H](CCCNC(=N)N)NC(=O)[C@H](CCCNC(=N)N)NC(=O)[C@H](CCCCN)NC(=O)[C@H](CCCCN)NC(=O)[C@H](CCCNC(=N)N)NC(=O)CN)CSSC[C@@H](C(N)=O)NC(=O)[C@H]([C@@H](C)O)NC(=O)CNC(=O)[C@H](CC(C)C)NC(=O)[C@H](Cc2c[nH]cn2)NC(=O)[C@H](CCCNC(=N)N)NC(=O)[C@@H]2CCCN2C(=O)[C@H](CO)NC1=O` [The CIGB-300 peptide, reference compound] has an IC50 (A431) of 90.7 ± 4 µM, an IC50 (A549) of 180 ± 30 µM and an IC50 (Hep-2) of 30.7 ± 2 µM. It also gave an IC50 (HepG2) of 128 ± 44 µM, an IC50 (NCI-H125) of 76.3 ± 2 µM and an IC50 (NCI-H226) of 70.8 µM. For the same compound, the IC50 (NCI-H460) was 30 ± 9 µM, the IC50 (NCI-H522) was 70 µM and the IC50 (NCI-H82) was 39.7 ± 11 µM. The IC50 (PC3) was 170 ± 5 µM, the IC50 (SK-MES1) was 150 ± 7 µM and the IC50 (SW948) was 143.1 ± 1 µM. For the same compound, the IC50 (U87) was 154 ± 15 µM, the IC50 (MRC-5) was 198 ± 8 µM and the IC50 (RR-805) was 230 ± 6 µM.
